Source: patent publication US20050048639

Legend:
p72 (1-600) = biological target: T1, p72 (1-600)
T1 chain: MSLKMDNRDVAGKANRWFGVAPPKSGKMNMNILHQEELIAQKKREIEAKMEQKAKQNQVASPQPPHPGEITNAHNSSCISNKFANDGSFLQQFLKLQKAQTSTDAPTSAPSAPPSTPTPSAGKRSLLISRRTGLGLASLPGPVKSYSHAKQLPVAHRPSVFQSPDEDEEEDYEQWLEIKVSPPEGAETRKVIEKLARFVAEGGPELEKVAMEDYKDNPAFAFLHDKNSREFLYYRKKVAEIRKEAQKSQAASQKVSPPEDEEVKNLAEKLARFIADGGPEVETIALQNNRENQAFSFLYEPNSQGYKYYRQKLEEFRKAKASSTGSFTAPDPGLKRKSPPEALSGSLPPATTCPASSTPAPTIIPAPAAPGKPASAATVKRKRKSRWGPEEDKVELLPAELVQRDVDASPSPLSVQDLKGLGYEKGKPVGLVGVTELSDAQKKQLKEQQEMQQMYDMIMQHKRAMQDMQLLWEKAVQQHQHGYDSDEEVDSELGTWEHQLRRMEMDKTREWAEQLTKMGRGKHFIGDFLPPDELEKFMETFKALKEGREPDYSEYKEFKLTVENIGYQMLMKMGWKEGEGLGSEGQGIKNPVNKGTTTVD

p72 (Cari) = biological target: T2, p72 (Cari)
T2 chain: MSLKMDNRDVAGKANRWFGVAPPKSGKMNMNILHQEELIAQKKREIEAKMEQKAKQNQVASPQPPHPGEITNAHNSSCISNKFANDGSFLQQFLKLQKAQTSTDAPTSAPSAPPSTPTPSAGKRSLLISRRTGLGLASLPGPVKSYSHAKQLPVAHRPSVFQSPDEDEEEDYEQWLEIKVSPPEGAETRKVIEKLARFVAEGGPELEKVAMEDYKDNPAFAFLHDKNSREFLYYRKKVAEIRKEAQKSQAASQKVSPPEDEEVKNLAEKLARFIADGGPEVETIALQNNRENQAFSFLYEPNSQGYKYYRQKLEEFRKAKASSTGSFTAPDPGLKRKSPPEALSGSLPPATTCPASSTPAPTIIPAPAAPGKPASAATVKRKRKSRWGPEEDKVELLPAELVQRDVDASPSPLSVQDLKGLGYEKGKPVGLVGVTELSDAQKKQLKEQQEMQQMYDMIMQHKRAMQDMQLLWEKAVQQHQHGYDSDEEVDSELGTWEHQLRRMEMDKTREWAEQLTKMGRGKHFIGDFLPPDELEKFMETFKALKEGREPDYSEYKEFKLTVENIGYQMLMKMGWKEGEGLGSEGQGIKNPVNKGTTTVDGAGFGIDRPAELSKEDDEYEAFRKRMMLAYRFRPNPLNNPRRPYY

p72 (D600E) = biological target: T3, p72 (D600E)
T3 chain: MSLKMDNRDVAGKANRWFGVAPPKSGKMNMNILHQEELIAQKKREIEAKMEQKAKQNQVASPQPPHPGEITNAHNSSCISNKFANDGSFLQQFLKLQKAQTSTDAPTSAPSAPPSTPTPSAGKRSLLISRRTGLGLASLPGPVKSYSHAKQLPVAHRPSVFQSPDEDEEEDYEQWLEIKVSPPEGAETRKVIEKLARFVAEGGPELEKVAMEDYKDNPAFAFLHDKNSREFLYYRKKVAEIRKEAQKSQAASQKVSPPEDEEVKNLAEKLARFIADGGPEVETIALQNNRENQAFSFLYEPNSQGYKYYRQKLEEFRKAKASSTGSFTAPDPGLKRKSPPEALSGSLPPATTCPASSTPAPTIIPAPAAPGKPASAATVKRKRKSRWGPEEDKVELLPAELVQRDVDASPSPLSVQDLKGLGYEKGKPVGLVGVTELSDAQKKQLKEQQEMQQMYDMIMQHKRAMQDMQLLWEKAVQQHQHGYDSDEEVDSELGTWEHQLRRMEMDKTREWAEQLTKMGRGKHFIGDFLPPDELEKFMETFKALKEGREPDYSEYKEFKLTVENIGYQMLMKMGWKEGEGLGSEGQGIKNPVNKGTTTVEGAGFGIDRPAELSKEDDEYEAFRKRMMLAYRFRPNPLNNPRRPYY

B1: recombinant active caspase-8 (protein)
chain 1: EELCGVMTISDSPREQDSESQTLDKVYQMKSKPRGYCLIINNHNFAKAREKVPKLHSIRDRNGTHLDAGALTTTFEELHFEIKPHHDCTVEQIYEILKIYQLMDHSNMDCFICCILSHGDKGIIYGTDGQEAPIYELTSQFTGLKCPSLAGKPKVFFI
chain 2: GIPVETDSEEQPYLEMDLSSPQTRYIPDEADFLLGMATVNNCVSYRNPAEGTWYIQSLCQSLRERCPRGDDILTILTEVNYEVSNKDDKKNMGKQ
cleavage of in vitro translated 35S-labeled Cari 1-600 by recombinant active caspase-8 (SDS-PAGE, phospho-imaging) (p72 (1-600)): co-migrates with the 68 kDa fragment produced after cleavage of the wild type Cari and is not further cleaved by addition of caspase-8 | cleavage of in vitro translated 35S-labeled Cari by recombinant active caspase-8 (SDS-PAGE, phospho-imaging) (p72 (Cari)): This band disappears after addition of activated caspase-8 for 1 hour and a new smaller fragment corresponding to 68 kDa appears (lane 4) | cleavage of in vitro translated 35S-labeled Cari D600E by recombinant active caspase-8 (SDS-PAGE, phospho-imaging) (p72 (D600E)): the same protein profile of Cari D600E mutant is observed in the presence or the absence of caspase-8
